Broadly, the IC50 is the point on the concentration scale where inhibition reaches its midpoint. A word on the Kd: it is a measure of binding affinity in units of concentration. Low values mean a tighter complex, high ones a looser complex. As a reminder, the koff is the first-order rate constant of dissociation. A higher koff goes with a short-lived complex. For orientation: kon means a measure of how fast the partners come together. A higher kon goes with fast association.

Experimental findings from patent US20150098939A1 (Sanofi, published 2015) are described below.

The target in experiment [1] is T1, hGPVI-hFc fusion protein (human).
T1 construct: also called GPVI-Fc; human GPVI-Fc fusion protein
In words: competition ELISA, hGPVI-Fc on collagen-coated plates (FIG. 1A). As for the experimental part: (§1) A secondary screening was performed to characterize functional properties of all human GPVI-specific mAbs for their ability to block the binding of collagen to human GPVI-Fc fusion protein in a competition ELISA binding assay. Custom-made collagen coated 96-well plates (Pierce) were used. Pre-incubated mixture of human GPVI-Fc fusion protein and hybridoma supernatants were added to the plate and collagen-human GPVI-Fc complex was detected by using goat anti-human IgG-Fc conjugated with horseradish peroxidase (Sigma; #A0170). The antibody binding was visualized by adding TMB-H2O2 buffer and read at a wavelength of 450 nm. […] The blocking properties of pre-selected mAbs to human GPVI were confirmed to be dose-dependent using a competition ELISA assay as shown in FIG. 1A.
In general terms: An ELISA detects its analyte on a solid surface through an enzyme-linked reagent.

The target of experiment [2] is T2, human GPVI protein, soluble extracellular domain (D1 and D2) (human, UniProt Q9HCN6 21-267).
T2 construct: extracellular domain; also called hGPVI; human glycoprotein VI
T2 sequence (looked up): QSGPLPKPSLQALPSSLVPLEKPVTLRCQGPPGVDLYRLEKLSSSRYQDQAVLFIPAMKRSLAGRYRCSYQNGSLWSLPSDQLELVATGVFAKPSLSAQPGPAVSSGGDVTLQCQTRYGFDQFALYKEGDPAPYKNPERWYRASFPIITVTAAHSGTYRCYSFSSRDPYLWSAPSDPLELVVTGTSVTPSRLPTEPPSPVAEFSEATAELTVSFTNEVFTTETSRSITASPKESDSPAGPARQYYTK
In words: SPR (BIAcore 2000), mAb captured by anti-Fc, human GPVI in solution. As for the experimental part: A last screening was performed by Surface Plasmon Resonance (BIAcore 2000) to evaluate binding properties of GPVI blocking antibodies. In this analysis, we evaluated the interaction of the human GPVI protein with the anti-human GPVI mAbs fixed to anti-Fc antibody covalently linked to CM chips. Binding kinetics of the individual mAbs were performed using the protocol described by Canziani et al 2004. Anal. Biochem. 325: 301-307.
(Surface plasmon resonance follows binding to a sensor surface in real time, without labels.)

In experiment [3] the target is T1, hGPVI-hFc fusion protein. In words: DELFIA competition assay: IgG preincubated with GPVI-Fc (3 µg/ml), binding to collagen-coated plate, Test 1. The protocol: (§2) Collagen coated 384 well plates (Pierce) were blocked with 3% BSA for 2 h. Increasing concentrations of IgG or its corresponding Fab fragment produced by Ficin cleavage (0.3-20 μg/ml) were incubated with recombinant GPVI (Fc-fusion protein of the extracellular GPVI domain; 3 μg/ml) for 30 min. The GPVI-IgG mixture was added to collagen coated plates and incubated for 1 h at RT. Next, 384 well plates were washed (DELFIA wash buffer, Perkin Elmer) five times and Eu-labelled anti-human IgG (100 ng/ml Perkin Elmer) was added. Following 1 h incubation at room temperature plates were washed again five times, enhancement solution (Perkin Elmer) was added and incubated for 10 min. Fluorescence was detected at 360/612 nm using a Tecan Ultra reader.

In experiment [4] the target is T1, hGPVI-hFc fusion protein. In words: DELFIA competition assay: IgG preincubated with GPVI-Fc (3 µg/ml), binding to collagen-coated plate, Test 2. As for the experimental part: as §2
Experiment [5] concerns the target T3, primate GPVI-Fc fusion protein (Macaca fascicularis) (Macaca fascicularis (cynomolgus), UniProt Q9HCN6 21-205 (human entry)).
T3 construct: also called Maccaca GPVI-Fc; primate GPVI-Fc protein; not shown: Fc part of the primate GPVI-Fc fusion is not described
T3 chain: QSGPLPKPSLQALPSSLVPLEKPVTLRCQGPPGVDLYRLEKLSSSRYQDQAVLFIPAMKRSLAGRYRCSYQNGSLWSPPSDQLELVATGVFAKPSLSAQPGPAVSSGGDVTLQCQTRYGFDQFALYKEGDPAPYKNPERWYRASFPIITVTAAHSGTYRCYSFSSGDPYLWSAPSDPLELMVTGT
Kind of experiment: competition ELISA against Maccaca GPVI-Fc: inhibition by purified IgG of the binding of GPVI-Fc to collagen; blocked ligand: collagen.

Experiment [6] deals with T1, hGPVI-hFc fusion protein. Kind of experiment: competition ELISA: purified IgG pre-incubated with hGPVI-Fc, mixture added to collagen-coated plate, bound GPVI-Fc detected with anti-human IgG-Fc-HRP (OD 450 nm); blocked ligand: collagen. As for the experimental part: as §1
The target of experiment [7] is T2, human GPVI protein, soluble …. In words: SPR (Biacore 3000), Fab immobilised, human GPVI analyte. The protocol: Surface plasmon resonance technology on a Biacore 3000 (GE Healthcare) was used for detailed kinetic characterization of purified antibody fragments. A direct binding assay was used with the anti-GPVI Fab as the ligand and human GPVI as analyte. Typically, 500 RU of anti-GPVI Fab were immobilized on a research grade CM5 chip by amine reactive coupling, resulting in an Rmax of 200 RU for the bound GPVI molecule. Binding kinetics were measured over a concentration range typically between 0.8 to 208 nM in HBS-EP (10 mM HEPES pH 7.4, 150 mM NaCl, 3 mM EDTA, 0.005% Surfactant P20) at a flow rate of 30 μl/min. Chip surfaces were regenerated with 10 mM glycine pH 2.0. Kinetic parameters were analyzed and calculated in the BIAevaluation program package (version 4.1) using a flow cell without immobilized Fab as reference. A 1:1 binding model with mass transfer was applied for a global fit of the data for curves.

The target of experiment [8] is T1, hGPVI-hFc fusion protein. Kind of experiment: DELFIA competition assay: Fab preincubated with GPVI-Fc (3 µg/ml), binding to collagen-coated plate, Test 1. The protocol: as §2
For experiment [9], the target named is T1, hGPVI-hFc fusion protein. In words: DELFIA competition assay: Fab preincubated with GPVI-Fc (3 µg/ml), binding to collagen-coated plate, Test 2. As for the experimental part:
as §2

For experiment [10], the target named is T2, human GPVI protein, soluble …. In words: SPR (Biacore 3000), human GPVI immobilised, Fab analyte. As for the experimental part:
Surface plasmon resonance technology on a Biacore 3000 (GE Healthcare) was used for detailed kinetic characterisation of purified antibody fragments. An assay with immobilised human GPVI was used. Typically, 300 RU of GPVI were immobilised on a research grade CM5 chip by amine reactive coupling, resulting in an Rmax of 200 RU for the bound antibody fragment. Binding kinetics were measured over a concentration range between 3.2 to 112 nM in HBS-EP (10 mM HEPES pH 7.4, 150 mM NaCl, 3 mM EDTA, 0.005% Surfactant P20) at a flow rate of 30 μl/min. Chip surfaces were regenerated with 10 mM glycine pH2.0. Kinetic parameters were analysed and calculated in the BIAevaluation program package (version 4.1) using a flow cell without immobilised GPVI as reference. A 1:1 binding model with mass transfer was applied for a global fit of the data for curves corresponding to analyte concentrations from 3-56 nM of Fab fragment.
Note that the Biacore assay used to measure the data in this example is different in terms of immobilized binding partner (GPVI versus the mAb/Fab fragment) and this leads to the different Biacore affinities as reported in Table 5.

Numbering of substitutions follows the chain as printed. A value given as a limit tells only on which side of the number the result lay.

B1: anti-GPVI mAb from hybridoma clone 390 (antibody, mouse IgG1, kappa, V domains shown)
VH: QVQLKESGPGLVAPSQSLSITCTVSGFSLTGYGVNWVRQPPGKGLEWLGMIWGDGSTDYNSTLKSRLSISKDNSKSQVFLKMNSLQTDDTARYYCARDLPMDYWGQGTSVTVSS
VL: DIQMTQSPSSLSASLGGKVTITCKASQDINKYIAWYQHKPGKGPSLLIHYTSTLQPGIPSRFSGSGSGRDYSFSISNLEPEDIATYYCLQYANLLTFGGGTKLEIKR
modifications: N-glycosylation site (NST) in the heavy chain variable region is occupied
notes: Mouse IgG1, kappa, purified from hybridoma; also called monoclonal antibody from clone 390; IgG from hybridoma clone 390
B1: the IC50 is less than 10 µg/mL in [1], 5.6 µg/mL in experiment [3] and 5 µg/mL in experiment [4]. The molecule also displayed a Kd in experiment [2] of 40 pM. In experiment [2], this molecule displayed a koff of 4e-06 s⁻¹. In [2], this molecule showed a kon of 108000 M⁻¹ s⁻¹. The “IC50 (read off the curve)” value is approximately 5 µg/mL in experiment [5] and approximately 3 µg/mL in experiment [6].

B2: Fab 390-G (recombinant glycosylated Fab of clone 390) (Fab, V domains shown)
VH: B1 VH
VL: B1 VL
modifications: additional N-glycosylation motif in VH kept
notes: Chimeric Fab from HEK293: VL fused to human constant kappa (IGKC, Q502W4), VH to CH1 of human IGHG1 (Q569F4)
In [7], B2 came in with a Kd of 50 pM, a koff of 1.5e-05 s⁻¹ and a kon of 320000 M⁻¹ s⁻¹.

B3: Fab produced by Ficin cleavage of IgG from hybridoma clone 390 (Fab, V domains shown)
VH: B1 VH
VL: B1 VL
notes: Proteolytic Fab; also called Fab (Ficin cleavage); proteolytic Fab fragment
As to B3, the IC50 in experiment [8] amounted to 1.3 µg/mL; in experiment [9], 1.1 µg/mL.

B4: Fab 390-nG (recombinant non-glycosylated Fab of clone 390) (Fab, V domains shown)
VH: B1 VH with N60Q
VL: B1 VL
notes: Chimeric Fab from HEK293: VL fused to human constant kappa (IGKC, Q502W4); also called ANTI-GPVI Fab 390-nG construct
In experiment [7], B4 displayed a dissociation constant Kd of 60 pM, a koff of 2.2e-05 s⁻¹ and a kon of 348000 M⁻¹ s⁻¹. In [10], the dissociation constant Kd turned out to be 200 pM, the koff came out at 2e-05 s⁻¹ and the kon amounted to 102000 M⁻¹ s⁻¹.
